Data as given in the supplement of paper PMC6757056.
± gives the standard deviation of the averaged measurements.

B1: library; a variant is named by its letters at N, in order (parent)
chain: GCUGUCACCGGUGCUUGGUACGUUAUAUUCAGCCGGUCUGAUGAGUCUNNNNNNAGACGAAACAGC

Assays:
[1] = variants of: B1; assay: normalized RNA/DNA level without ligand (relative to sTRSVctl = 100) (log10 (% of sTRSVctl)); HEK293T overexpressing SLC46A1; higher = less ribozyme self-cleavage, higher mRNA level; details: without (6R,S)-folinic acid; ligand present: no
In short: (§1)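 Library plasmids carrying ribozyme switches linked to mCherry, or to eGFP in some ligand experiments, were transfected into HEK293T at 4 µg per 6-well well, with any ligand added 1 h earlier. Seventy-two hours on, total RNA was extracted with EDTA and reverse-transcribed, amplified, barcoded and sequenced. RNA level was RNA over DNA reads normalized to a spiked-in non-cleaving sequence or to the top sequences, then scaled and log-transformed. The top set was 25 sequences, the transform was ×100 and log10, and sequences needed ≥100 DNA reads.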

[2] = variants of: B1; assay: normalized RNA/DNA level with ligand (relative to sTRSVctl = 100) (log10 (% of sTRSVctl)); HEK293T overexpressing SLC46A1; ligand concentration (+) RNA-Seq: 6 mM; higher = less ribozyme self-cleavage, higher mRNA level; details: with (6R,S)-folinic acid; ligand present: yes
In short: as §1

| Variant | normalized RNA/DNA level without ligand (log10) [1] | normalized RNA/DNA level with ligand (log10) [2] |
| --- | --- | --- |
| CCAAUA | 1.994 ± 0.0075 | 2 ± 0.036 |
| GCCAAC | 2.033 ± 0.02 | 2.055 ± 0.011 |
| GCCAAU | 2.001 ± 0.0032 | 2 ± 0.053 |
| GCCAAG | 2.0227 ± 0.0017 | 2.04 ± 0.038 |
| ACCAUC | 2.044 ± 0.011 | 2.02 ± 0.04 |
| ACCAUG | 1.982 ± 0.012 | 2.016 ± 0.0077 |
| ACCAUA | 1.988 ± 0.0064 | 2.013 ± 0.019 |
| ACCAUU | 2.02 ± 0.03 | 2.044 ± 0.0061 |
| UCACCU | 2.051 ± 0.0042 | 2.06 ± 0.027 |
| UCACCC | 2.05 ± 0.025 | 2.04 ± 0.037 |
| UCACCA | 2.0085 ± 0.0017 | 2.006 ± 0.0035 |
| GCAGUC | 2.046 ± 0.0028 | 2.05 ± 0.048 |
| GCAGUU | 2.03 ± 0.0047 | 2.04 ± 0.053 |
| GCAGUG | 1.9 ± 0.021 | 2.02 ± 0.038 |
| GCCAUU | 2.041 ± 0.0051 | 2.008 ± 0.015 |
| GCCAUA | 2.016 ± 0.0031 | 2.02 ± 0.052 |
| GCCAUC | 2.02 ± 0.031 | 2 ± 0.032 |
| GCACUC | 2.022 ± 0.0041 | 2.022 ± 0.0086 |
| GCACUG | 2 ± 0.024 | 2.02 ± 0.056 |
| GCACUA | 2.019 ± 0.018 | 2.01 ± 0.022 |

| Variant | normalized RNA/DNA level without ligand (log10) [1] | normalized RNA/DNA level with ligand (log10) [2] |
| --- | --- | --- |
| GCACUU | 2.001 ± 0.017 | 2.01 ± 0.021 |
| GCCACA | 2.036 ± 0.0076 | 2.026 ± 0.018 |
| GCCACU | 2.022 ± 0.011 | 2.01 ± 0.029 |
| GCCACG | 1.99 ± 0.04 | 2.03 ± 0.062 |
| GCCACC | 2.0387 ± 0.00018 | 2.01 ± 0.025 |
| UCAUUA | 2.003 ± 0.014 | 2.04 ± 0.023 |
| UCAUUC | 2.067 ± 0.013 | 2.07 ± 0.021 |
| UCAUUU | 2.021 ± 0.014 | 2.02 ± 0.047 |
| ACAAUU | 2.018 ± 0.0076 | 2.044 ± 0.018 |
| ACAAUC | 2.043 ± 0.01 | 2.03 ± 0.031 |
| UCACAA | 1.982 ± 0.017 | 1.98 ± 0.025 |
| UCACAU | 1.986 ± 0.0076 | 2.02 ± 0.048 |
| UCACAC | 2.048 ± 0.015 | 2.023 ± 0.016 |
| UCACAG | 1.9 ± 0.0082 | 1.979 ± 0.012 |
| CCCCCA | 2.023 ± 0.004 | 1.99 ± 0.047 |
| ACAUAG | 1.935 ± 0.013 | 2.02 ± 0.021 |
| ACAUAU | 1.94 ± 0.037 | 2.01 ± 0.022 |
| UCAAGU | 1.984 ± 0.0097 | 2.02 ± 0.045 |
| ACAUGC | 2.014 ± 0.014 | 2.04 ± 0.07 |
| ACAUGU | 2.022 ± 0.0056 | 2.02 ± 0.023 |

| Variant | normalized RNA/DNA level without ligand (log10) [1] | normalized RNA/DNA level with ligand (log10) [2] |
| --- | --- | --- |
| ACAUGA | 1.979 ± 0.01 | 2.034 ± 0.019 |
| UCCCAA | 1.981 ± 0.011 | 1.97 ± 0.024 |
| UCCCAG | 1.962 ± 0.014 | 2.04 ± 0.03 |
| UCCCAU | 2.003 ± 0.0031 | 1.9973 ± 0.0006 |
| UCCCAC | 2.026 ± 0.012 | 2.02 ± 0.043 |
| GCAGAG | 1.808 ± 0.01 | 2 ± 0.074 |
| GCAGAA | 1.942 ± 0.0071 | 2.01 ± 0.044 |
| GCAGAC | 1.98 ± 0.037 | 2.02 ± 0.022 |
| CCCAGG | 2.042 ± 0.006 | 2.01 ± 0.025 |
| CCCAGC | 2.06 ± 0.035 | 2.06 ± 0.068 |
| CCCAGA | 2.0467 ± 0.00053 | 2.029 ± 0.012 |
| CCCAGU | 2.05 ± 0.038 | 2.034 ± 0.02 |
| GCCCAG | 2 ± 0.028 | 2 ± 0.059 |
| GCCCAA | 2.03 ± 0.014 | 2.02 ± 0.042 |
| GCCCAU | 2.014 ± 0.0026 | 2.02 ± 0.061 |
| GCCCAC | 2.02 ± 0.011 | 2.01 ± 0.034 |
| ACCAGG | 1.9569 ± 0.0006 | 2 ± 0.024 |
| ACCAGA | 2.019 ± 0.013 | 2.05 ± 0.033 |
